# Data taken from patent US20230235012A1 (ALPINE IMMUNE SCIENCES, published 2023).
# T1: human ICOS (human, UniProt Q9Y6W8 21-199)
# T1 construct: whole, on cells
# T1 sequence (looked up): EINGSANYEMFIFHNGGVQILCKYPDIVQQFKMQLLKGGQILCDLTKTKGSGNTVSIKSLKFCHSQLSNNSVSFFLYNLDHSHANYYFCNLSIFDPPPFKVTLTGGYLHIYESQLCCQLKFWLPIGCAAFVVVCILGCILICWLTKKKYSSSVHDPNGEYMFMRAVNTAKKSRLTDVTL
# T2: human ICOS, full length, expressed on cells (human, UniProt Q9Y6W8 21-199)
# T2 sequence: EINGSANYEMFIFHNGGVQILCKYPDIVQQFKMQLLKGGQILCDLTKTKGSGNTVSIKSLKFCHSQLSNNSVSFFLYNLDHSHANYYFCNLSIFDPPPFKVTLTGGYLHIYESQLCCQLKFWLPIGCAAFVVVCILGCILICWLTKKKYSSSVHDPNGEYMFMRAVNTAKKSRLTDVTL
# Tests used:
# human CD28 [1] = molecular target: T3, human CD28 (human, UniProt P10747 19-220); experiment: flow cytometry, transfected cells; protein from CHO
# T3 construct: whole, on cells
# human ICOS [2] = molecular target: T1, human ICOS; experiment: as above
# human CTLA-4 [3] = molecular target: T4, human CTLA-4 (human, UniProt P16410 36-223); experiment: as above
# T4 construct: whole, on cells
# human CD28 [4] = molecular target: T3, human CD28; experiment: flow cytometry, transfected cells; protein from 293
# human ICOS [5] = molecular target: T1, human ICOS; experiment: as above
# human CTLA-4 [6] = molecular target: T4, human CTLA-4; experiment: as above
# human CD28 [7] = molecular target: T3, human CD28; experiment: flow cytometry, transfected cells; protein from CHO; remark: listed apart in the source
# human ICOS [8] = molecular target: T1, human ICOS; experiment: as above; remark: listed apart in the source
# human CTLA-4 [9] = molecular target: T4, human CTLA-4; experiment: as above; remark: listed apart in the source
# [10] = molecular target: T2, human ICOS, full length, expressed on …; experiment: flow cytometry on CHO cells transduced for surface expression of full-length human ICOS; Fc protein 32 pM to 100 nM, PE anti-human IgG, MFI
# [11] = molecular target: human CD28, full length, expressed on cells (human) (UniProt P10747); experiment: flow cytometry, ECD-Fc on CD28-transfected HEK293 cells
# T4 sequence (P16410 36-223): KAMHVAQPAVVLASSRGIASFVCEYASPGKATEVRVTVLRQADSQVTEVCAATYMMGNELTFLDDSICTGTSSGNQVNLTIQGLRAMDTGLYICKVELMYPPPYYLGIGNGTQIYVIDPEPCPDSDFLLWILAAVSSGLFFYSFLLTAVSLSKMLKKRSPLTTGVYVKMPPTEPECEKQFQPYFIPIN
binder,measurement,setting,value
ICOSL ECD with N52H/N57Y/Q100R/C198R linked to Fc C220S/L234A/L235E/G237A (Table 30D) (Fc fusion) DTQEKEVRAMVGSDVELSCACPEGSRFDLNDVYVYWQTSESKTVVTYHIPQHSSLEYVDSRYRNRALMSPAGMLRGDFSLRLFNVTPQDEQKFHCLVLSRSLGFQEVLSVEVTLHVAANFSVPVVSAPHSPSQDELTFTCTSINGYPRPNVYWINKTDNSLLDQALQNDTVFLNMRGLYDVVSVLRIARTPSVNIGCRIENVLLQQNLTVGSQTGNDIGERDKITENPVSTGEKNAATEPKSSDKTHTCPPCPAPEAEGAPSVFLFPPKPKDTLMISRTPEVTCVVVDVSHEDPEVKFNWYVDGVEVHNAKTKPREEQYNSTYRVVSVLTVLHQDWLNGKEYKCKVSNKALPAPIEKTISKAKGQPREPQVYTLPPSREEMTKNQVSLTCLVKGFYPSDIAVEWESNGQPENNYKTTPPVLDSDGSFFLYSKLTVDKSRWQQGNVFSCSVMHEALHNHYTQKSLSLSPGK,MFI,human CD28 [1],12900 MFI
same,MFI,human ICOS [2],7700 MFI
same,MFI,human CTLA-4 [3],8750 MFI
same,MFI,human CD28 [4],13700 MFI
same,MFI,human ICOS [5],16700 MFI
same,MFI,human CTLA-4 [6],8720 MFI
"ICOSL IgV with N52H/N57Y/Q100R, Fc fusion (Fc fusion, also called ICOSCL IgV with N52H/N57Y/Q100R) DTQEKEVRAMVGSDVELSCACPEGSRFDLNDVYVYWQTSESKTVVTYHIPQHSSLEYVDSRYRNRALMSPAGMLRGDFSLRLFNVTPQDEQKFHCLVLSRSLGFQEVLSVEVTLHVAANFSVGGGGSGGGGSEPKSSDKTHTCPPCPAPEAEGAPSVFLFPPKPKDTLMISRTPEVTCVVVDVSHEDPEVKFNWYVDGVEVHNAKTKPREEQYNSTYRVVSVLTVLHQDWLNGKEYKCKVSNKALPAPIEKTISKAKGQPREPQVYTLPPSREEMTKNQVSLTCLVKGFYPSDIAVEWESNGQPENNYKTTPPVLDSDGSFFLYSKLTVDKSRWQQGNVFSCSVMHEALHNHYTQKSLSLSPG",MFI,human CD28 [7],84600 MFI
same,MFI ratio to WT,human CD28 [7],49 fold
same,MFI,human ICOS [8],118000 MFI
same,MFI ratio to WT,human ICOS [8],1.2 fold
same,MFI,human CTLA-4 [9],205000 MFI
same,MFI ratio to WT,human CTLA-4 [9],27 fold
same,MFI,human CD28 [1],17300 MFI
same,MFI ratio to WT,human CD28 [1],4.9 fold
same,MFI,human ICOS [2],8670 MFI
same,MFI ratio to WT,human ICOS [2],0.7 fold
same,MFI,human CTLA-4 [3],9040 MFI
same,MFI ratio to WT,human CTLA-4 [3],0.7 fold
same,MFI,human CD28 [4],16600 MFI
same,MFI ratio to WT,human CD28 [4],4.7 fold
same,MFI,human ICOS [5],9380 MFI
same,MFI ratio to WT,human ICOS [5],0.8 fold
same,MFI,human CTLA-4 [6],9670 MFI
same,MFI ratio to WT,human CTLA-4 [6],0.8 fold
"ICOSL (N52D) (Fc fusion, not shown: a dimerising Fc or GST; small tags and cut ends, also called ICOSL H79; parental ICOSL only protein) DTQEKEVRAMVGSDVELSCACPEGSRFDLNDVYVYWQTSESKTVVTYHIPQDSSLENVDSRYRNRALMSPAGMLRGDFSLRLFNVTPQDEQKFHCLVLSQSLGFQEVLSVEVTLHVAANFSV",EC50 (read off the curve),[10],~0.8 nM
"ICOSL (N52H/N57Y/Q100R) (Fc fusion, not shown: a dimerising Fc or GST; small tags and cut ends, also called ICOSL H238; parental ICOSL only protein) DTQEKEVRAMVGSDVELSCACPEGSRFDLNDVYVYWQTSESKTVVTYHIPQHSSLEYVDSRYRNRALMSPAGMLRGDFSLRLFNVTPQDEQKFHCLVLSRSLGFQEVLSVEVTLHVAANFSV",EC50 (read off the curve),[10],~0.5 nM
variant ICOSL ECD-Fc F120S/Y152H/N201S (Fc fusion) DTQEKEVRAMVGSDVELSCACPEGSRFDLNDVYVYWQTSESKTVVTYHIPQNSSLENVDSRYRNRALMSPAGMLRGDFSLRLFNVTPQDEQKFHCLVLSQSLGFQEVLSVEVTLHVAANSSVPVVSAPHSPSQDELTFTCTSINGYPRPNVHWINKTDNSLLDQALQNDTVFLNMRGLYDVVSVLRIARTPSVNIGCCIESVLLQQNLTVGSQTGNDIGERDKITENPVSTGEKNAATAAAEPKSSDKTHTCPPCPAPELLGGPSVFLFPPKPKDTLMISRTPEVTCVVVDVSHEDPEVKFNWYVDGVEVHNAKTKPCEEQYGSTYRCVSVLTVLHQDWLNGKEYKCKVSNKALPAPIEKTISKAKGQPREPQVYTLPPSREEMTKNQVSLTCLVKGFYPSDIAVEWESNGQPENNYKTTPPVLDSDGSFFLYSKLTVDKSRWQQGNVFSCSVMHEALHNHYTQKSLSLSPGK,CD28 MFI parental ratio (ratio to WT ICOSL),[11],0.89
variant ICOSL ECD-Fc S54F/V193A (Fc fusion) DTQEKEVRAMVGSDVELSCACPEGSRFDLNDVYVYWQTSESKTVVTYHIPQNSFLENVDSRYRNRALMSPAGMLRGDFSLRLFNVTPQDEQKFHCLVLSQSLGFQEVLSVEVTLHVAANFSVPVVSAPHSPSQDELTFTCTSINGYPRPNVYWINKTDNSLLDQALQNDTVFLNMRGLYDVVSVLRIARTPSANIGCCIENVLLQQNLTVGSQTGNDIGERDKITENPVSTGEKNAATAAAEPKSSDKTHTCPPCPAPELLGGPSVFLFPPKPKDTLMISRTPEVTCVVVDVSHEDPEVKFNWYVDGVEVHNAKTKPCEEQYGSTYRCVSVLTVLHQDWLNGKEYKCKVSNKALPAPIEKTISKAKGQPREPQVYTLPPSREEMTKNQVSLTCLVKGFYPSDIAVEWESNGQPENNYKTTPPVLDSDGSFFLYSKLTVDKSRWQQGNVFSCSVMHEALHNHYTQKSLSLSPGK,CD28 MFI,[11],16 MFI
same,CD28 MFI parental ratio (ratio to WT ICOSL),[11],0.87
"ICOSL ECD Truncation #7 with N52H/N57Y/Q100R/F172S, Fc fusion (Fc fusion) DTQEKEVRAMVGSDVELSCACPEGSRFDLNDVYVYWQTSESKTVVTYHIPQHSSLEYVDSRYRNRALMSPAGMLRGDFSLRLFNVTPQDEQKFHCLVLSRSLGFQEVLSVEVTLHVAANFSVPVVSAPHSPSQDELTFTCTSINGYPRPNVYWINKTDNSLLDQALQNDTVSLNMRGLYDVVSVLRIARTPSVNIGCCIENGGGGSGGGGSEPKSSDKTHTCPPCPAPEAEGAPSVFLFPPKPKDTLMISRTPEVTCVVVDVSHEDPEVKFNWYVDGVEVHNAKTKPREEQYNSTYRVVSVLTVLHQDWLNGKEYKCKVSNKALPAPIEKTISKAKGQPREPQVYTLPPSREEMTKNQVSLTCLVKGFYPSDIAVEWESNGQPENNYKTTPPVLDSDGSFFLYSKLTVDKSRWQQGNVFSCSVMHEALHNHYTQKSLSLSPG",MFI,human CD28 [1],13000 MFI
same,MFI ratio to WT,human CD28 [1],3.7 fold
same,MFI,human ICOS [2],8080 MFI
same,MFI ratio to WT,human ICOS [2],0.7 fold
same,MFI,human CTLA-4 [3],9040 MFI
same,MFI ratio to WT,human CTLA-4 [3],0.7 fold
same,MFI,human CD28 [4],12000 MFI
same,MFI ratio to WT,human CD28 [4],3.4 fold
same,MFI,human ICOS [5],7600 MFI
same,MFI ratio to WT,human ICOS [5],0.7 fold
same,MFI,human CTLA-4 [6],9670 MFI
same,MFI ratio to WT,human CTLA-4 [6],0.8 fold
